Measurements: paper PMC4585563

Target: CTNNBL1^Q238A (human) (UniProt Q8WYA6)
Assay: SEC; Superdex 200 10/300, 500 μl of 2 mg/ml protein, 0.5 ml/min, 40 mM Tris-HCl pH 8.0, 150 mM NaCl; molecular weight from calibration standards

stoichiometry N: 2
Substance: CTNNBL1^Q238A (from UniProt Q8WYA6 77-563) (domain or fragment)
